In patent US20210101998A1 (Pfizer, published 2021):
Where two headings read alike, the source gives them in different places.

Legend:
rabTFPI K1K2 [1] = molecular target: T1, rabTFPI K1K2 (rabbit, limits assumed); assay: SPR, summary table
T1 construct: also called Rabbit TFPI K1K2; rabbit TFPI
T1 chain: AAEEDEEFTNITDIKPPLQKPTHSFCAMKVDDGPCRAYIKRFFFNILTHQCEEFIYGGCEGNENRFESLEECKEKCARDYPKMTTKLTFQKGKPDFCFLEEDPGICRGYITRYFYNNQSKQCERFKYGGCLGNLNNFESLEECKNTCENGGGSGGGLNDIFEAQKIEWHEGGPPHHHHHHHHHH
Procedure: (§1) The flow cells were activated by injecting a 1:1 mixture of 400 mM 1-Ethyl-3-(3-dimethylaminopropyl) carbodiimide hydrochloride (EDC) and N-hydroxysuccinimide (NHS) for 7 minutes at a flow rate of 10 μl/minute. Anti-human IgG antibody was diluted to 25 μg/ml in 10 mM Sodium Acetate pH 5.0 and injected over all flow cells for 7 minutes at 10 ul/minute. All flow cells were blocked with 1 M Ethanolamine-HCL (ETH) for 7 minutes at 10 μl/minute. Final immobilization level of the capture antibody was approximately 10,000 resonance units (RU). The running buffer for immobilization and kinetics was 10 mM HEPES pH 7.4, 150 mM NaCl, 3 mM EDTA, 0.05% (v/v) Tween-20 (HBS-EP+). […] Flow cell 1 was used as a reference surface. […] At the end of each cycle, the entire anti-IgG surface was regenerated by a 60 second pulse of 3 M MgCl2. Kinetic assays were conducted at 25° C. at a collection rate of 10 Hz on a BIAcore T200 instrument (GE Healthcare). Rate constants and affinities were determined by fitting the data to a 1:1 model in BIAcore T200 Evaluation software version 1.0 (GE).

murTFPI K1K2 [2] = molecular target: T2, murTFPI K1K2 (mouse); assay: SPR, summary table
T2 construct: also called Mouse TFPI K1K2; mouse TFPI
T2 chain: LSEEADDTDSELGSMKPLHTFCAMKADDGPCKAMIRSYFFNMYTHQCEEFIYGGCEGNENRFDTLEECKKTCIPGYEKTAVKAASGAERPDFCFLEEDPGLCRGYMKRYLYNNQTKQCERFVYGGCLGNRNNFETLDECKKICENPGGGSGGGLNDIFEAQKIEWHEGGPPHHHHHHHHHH
Procedure: as §1

cynTFPI K1K2 [3] = molecular target: T3, cynTFPI K1K2 (cynomolgus monkey); assay: SPR, summary table
T3 construct: also called Cynomolgus Monkey TFPI K1K2; cyno TFPI K1K2
Procedure: as §1

humTFPI K1K2 [4] = molecular target: T4, humTFPI K1K2 (human); assay: SPR, summary table
T4 construct: Biotinylated on the AviTag for ELISA; also called Human TFPIα K1K2; humTFPI K1K2-aviHis10
Procedure: as §1

humTFPI K1K2 [5] = molecular target: T4, humTFPI K1K2; assay: cell-based or functional assay
rabTFPI K1K2 [6] = molecular target: T1, rabTFPI K1K2; assay: SPR, antibody ligand, TFPI analyte;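 further: surface plasmon resonance on a BIAcore T200 at 25 °C, test antibody captured on immobilized anti-human IgG, TFPI K1K2 flowed as analyte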
Procedure: as §1

cynTFPI K1K2 [7] = molecular target: T3, cynTFPI K1K2; assay: SPR, antibody ligand, TFPI analyte;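 further: surface plasmon resonance on a BIAcore T200 at 25 °C, test antibody captured on immobilized anti-human IgG, TFPI K1K2 flowed as analyte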
Procedure: as §1

ratTFPI K1K2 [8] = molecular target: T5, ratTFPI K1K2 (rat); assay: SPR, antibody ligand, TFPI analyte;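 further: surface plasmon resonance on a BIAcore T200 at 25 °C, test antibody captured on immobilized anti-human IgG, TFPI K1K2 flowed as analyte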
T5 chain: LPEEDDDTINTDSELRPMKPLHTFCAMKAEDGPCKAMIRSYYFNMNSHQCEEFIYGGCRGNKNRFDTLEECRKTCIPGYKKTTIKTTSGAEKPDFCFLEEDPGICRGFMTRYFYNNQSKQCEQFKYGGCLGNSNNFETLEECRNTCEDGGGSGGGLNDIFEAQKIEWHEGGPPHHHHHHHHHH
Procedure: as §1

humTFPI K1K2 [9] = molecular target: T4, humTFPI K1K2; assay: SPR, antibody ligand, TFPI analyte;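 on result: surface plasmon resonance on a BIAcore T200 at 25 °C, test antibody captured on immobilized anti-human IgG, TFPI K1K2 flowed as analyte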
Procedure: as §1

humTFPI K1K2 [10] = molecular target: T4, humTFPI K1K2; assay: cell-based or functional assay; remark: listed apart in the source
murTFPI K1K2 [11] = molecular target: T2, murTFPI K1K2; assay: SPR, antibody ligand, TFPI analyte
humTFPI K1K2 [12] = molecular target: T4, humTFPI K1K2; assay: SPR, antibody ligand, TFPI analyte; remark: listed apart in the source
humTFPI K1K2 [13] = molecular target: T4, humTFPI K1K2; assay: SPR, antibody ligand, TFPI analyte; remark: listed apart in the source
Procedure: as §1

ratTFPI K1K2 [14] = molecular target: T5, ratTFPI K1K2; assay: SPR, summary table
Procedure: as §1

rabTFPI K1K2 [15] = molecular target: T1, rabTFPI K1K2; assay: ELISA, biotinylated TFPI on streptavidin plate
humTFPI K1K2 [16] = molecular target: T4, humTFPI K1K2; assay: ELISA, biotinylated TFPI on streptavidin plate
humTFPI K1K2 [17] = molecular target: T4, humTFPI K1K2; assay: SPR, antibody ligand, TFPI analyte; remark: listed apart in the source
Procedure: as §1

humTFPI K1K2 [18] = molecular target: T4, humTFPI K1K2; assay: cell-based or functional assay; remark: listed apart in the source

B1: hz4F36 (antibody, human IgG4 S228P, kappa, V domains shown)
VH: EVQLVESGGGLVKPGGSLRLSCAASGFTFSNYAMSWVRQTPEKRLEWVATISRSGSYSYFPDSVQGRFTISRDNAKNSLYLQMNSLRAEDTAVYYCARLGGYDEGDAMDSWGQGTTVTVSS
VL: DIVMTQTPLSLSVTPGQPASISCKSSQSLLESDGKTYLNWYLQKPGQSPQLLIYLVSILDSGVPDRFSGSGSGTDFTLKISRVEAEDVGVYYCLQATHFPQTFGGGTKVEIKR
notes: also called Novo2021; Anti-TFPI-4F36
B1 was tested, and the Kd (rabTFPI K1K2 [1]) was 1.81 nM, the binding result (murTFPI K1K2 [2]) was “no binding” and the Kd (cynTFPI K1K2 [3]) was 0.425 nM. For the same binder, the Kd (humTFPI K1K2 [4]) was 0.493 nM, the “FVIIa/TF/Xa EC50” value (humTFPI K1K2 [5]) was 1.85 nM and the “Xa Inhibition Assay EC50” value (humTFPI K1K2 [5]) was 6.57 nM. For the same binder, the Kd (rabTFPI K1K2 [6]) was 1.81 nM, the koff (rabTFPI K1K2 [6]) was 0.0076 s⁻¹ and the kon (rabTFPI K1K2 [6]) was 4.2e+06 M⁻¹ s⁻¹. The Kd (cynTFPI K1K2 [7]) was 0.425 nM, the koff (cynTFPI K1K2 [7]) was 0.00288 s⁻¹ and the kon (cynTFPI K1K2 [7]) was 6.86e+06 M⁻¹ s⁻¹. For the same binder, the binding result (ratTFPI K1K2 [8]) was “no binding”, the Kd (humTFPI K1K2 [9]) was 0.49 nM and the koff (humTFPI K1K2 [9]) was 0.00093 s⁻¹. For the same binder, the kon (humTFPI K1K2 [9]) was 1.89e+06 M⁻¹ s⁻¹.

B2: TFPI-24 (antibody, human IgG1, lambda, V domains shown)
VH: EVQLVESGGGSVQPGRSLRLSCAVSGLTIDNYAMQWVRQRPGKGLEWVSGISGNSRSIGYADSVKGRLTISRDNAKNSLYLQIDSLRADDTALYYCAIFLHESDYWGQGTLVTVSS
VL: QSVLTQPPSVSGTPGQRVTISCSGSTSNIGTMYVHWYQHVPGTAPKLLIYRNNHRPSGVPDRFSGSKSGTSGSLAISGLRSEDEADYYCLAWDDTLRAYVFGTGTKVTVLG
notes: Human IgG1-3M from phage display; also called mAb-TFPI-24; clone 24
With B2 the “FXa EC50” value (humTFPI K1K2 [10]) was 23 nM, the “FXa-FVIIa EC50” value (humTFPI K1K2 [10]) was 9.3 nM and the Kd (murTFPI K1K2 [11]) was 24.1 nM. The koff (murTFPI K1K2 [11]) was 0.00596 s⁻¹, the kon (murTFPI K1K2 [11]) was 248000 M⁻¹ s⁻¹ and the Kd (humTFPI K1K2 [12]) was 5.46 nM. For the same binder, the koff (humTFPI K1K2 [12]) was 0.000862 s⁻¹, the kon (humTFPI K1K2 [12]) was 159000 M⁻¹ s⁻¹ and the koff (humTFPI K1K2 [13]) was 0.000862 s⁻¹. It also gave a kon (humTFPI K1K2 [13]) of 159000 M⁻¹ s⁻¹.

B3: TFPI-118 (antibody, human IgG1, lambda, V domains shown)
VH: EVQLVESGGGLVQPGRSLRLSCAVSGLTIDNYAMQWVRQAPGKGLEWVSGISGNSRSIGYADSVKGRFTISRDNAKNSLYLQMNSLRAEDTALYYCAIFLHESDYWGQGTLVTVSS
VL: QSVLTQPPSASGTPGQRVTISCSGSTSNIGTMYVHWYQQLPGTAPKLLIYRNNHRPSGVPDRFSGSKSGTSASLAISGLRSEDEADYYCLAWDDTLRAYVFGTGTKVTVLG
notes: Germlined variant of TFPI-24: VL of TFPI-113 paired with VH of TFPI-108
For B3, the Kd (rabTFPI K1K2 [1]) was 5.79 nM, the Kd (ratTFPI K1K2 [14]) was 3.65 nM and the “FVIIa/TF/Xa EC50” value (humTFPI K1K2 [5]) was 4.03 nM. The “Xa Inhibition Assay EC50” value (humTFPI K1K2 [5]) was 20.8 nM, the Kd (rabTFPI K1K2 [6]) was 5.79 nM and the Kd (ratTFPI K1K2 [8]) was 3.65 nM.

B4: hz4D8 (antibody, human IgG1, kappa, V domains shown)
VH: EVQLVESGGGLVQPGGSLRLSCAASGYTFTDYNLDWVRQAPGKGLEWVADINPINGATLYNQKFKGRFTISRDQAKNSLYLQMNSLRAEDTAVYYCARYYGDYDAMDYWGQGTLVTVSS
VL: DIQMTQSPSSLSASVGDRVTITCKASQDVHTAVAWYQQKPGKAPKLLIYWASTRHTGVPSRFSGSGSGTDYTLTISSLQPEDFATYYCQQHYTTPYTFGQGTKLEIKR
notes: also called 4D8-Vk1.1 × VH1.4; 4D8 Vk 1.1 × VH 1.4
Binder B4 has an EC50 (rabTFPI K1K2 [15]) of 0.0716 nM, an EC50 (humTFPI K1K2 [16]) of 0.0493 nM and a Kd (rabTFPI K1K2 [1]) of 0.502 nM. For the same binder, the binding result (murTFPI K1K2 [2]) was “no binding”, the Kd (cynTFPI K1K2 [3]) was 0.067 nM and the binding result (ratTFPI K1K2 [14]) was “no binding”. The Kd (humTFPI K1K2 [4]) was 0.42 nM, the Kd (humTFPI K1K2 [17]) was 0.293 nM and the koff (humTFPI K1K2 [17]) was 5.28e-05 s⁻¹. For the same binder, the kon (humTFPI K1K2 [17]) was 221000 M⁻¹ s⁻¹, the “FVIIa/TF/Xa EC50” value (humTFPI K1K2 [5]) was 0.4 nM and the “Xa Inhibition Assay EC50” value (humTFPI K1K2 [5]) was 6.92 nM. For the same binder, the “FXa EC50” value (humTFPI K1K2 [18]) was 1.87 nM, the “FXa-FVIIa EC50” value (humTFPI K1K2 [18]) was 1.57 nM and the Kd (rabTFPI K1K2 [6]) was 0.502 nM. For the same binder, the koff (rabTFPI K1K2 [6]) was 0.0029 s⁻¹, the kon (rabTFPI K1K2 [6]) was 3.16e+06 M⁻¹ s⁻¹ and the Kd (cynTFPI K1K2 [7]) was 0.067 nM. It also gave a koff (cynTFPI K1K2 [7]) of 0.00195 s⁻¹, a kon (cynTFPI K1K2 [7]) of 2.93e+07 M⁻¹ s⁻¹ and a Kd (humTFPI K1K2 [9]) of 0.42 nM. It also gave a koff (humTFPI K1K2 [9]) of 0.00132 s⁻¹ and a kon (humTFPI K1K2 [9]) of 3.16e+06 M⁻¹ s⁻¹.
